Substitutions are numbered along the chain they refer to.
B1: rabbit monoclonal antibody 5.17D12 (antibody, V domains shown)
VH: QSLEESGGDLVKPGASLTLTCTASGFSFSSNYYMCWVRQAPGKGLEWIACVYVGSGGSTYYASWAKGRFTFSKTSSTTWTLQMTSLTAADTATYFCARDLSYAGDLWGPGTLVTVSS
VL: DPVMTQTPASVSEPVGGTVTINCQASESISSYLAWYQQKPGQPPKLLIYGASNLASGVPSRFKGSGSGTEYTLTISDLECDDAATYYCQSAYYSNSGGHAFGGGTEVVVKG
notes: Rabbit mAb (Method #5), recombinant; also called rabmab 5.17D12
B2: antibody 3.1C1 (antibody, V domains shown)
VH: QVQLQQSGPELVKPGASVRISCKASGYTFTNYFIHWVKQRPGQGLEWIGWINPGNLNTKYTEEFKGKATLTADKSSSTAYIQLNSLTSEDSAVYFCVNGNPFVYWGQGTLVTVSA
VL: DIVMTQSPSSLTVIAGEKVTLNCKSSQSLLNSGNQKKYLTWLQQKPGQPPKLLIYWTSTRDSGVPDRFTGSGSGTDFTLTISSVQAEDLAVYYCQNDYSYPLTFGAGTKLEIKR
notes: Mouse mAb, cloned as murine IgG2a LALAPG; not written separately; also called SRA-ID mAb 3.1C1
B3: antibody 3.6E10 (antibody, V domains shown)
VH: QVQLQQSGAELAKPGASVKMSCKASGYIFTSYYLHWVKQRPGQGLEWIGYINPNTGYTEYTQNFKDRATLTADKSSSTAYMQLTSLTSEDSAVYFCVNGNPFVYWGQGTLVTVSA
VL: B2 VL with I14T, A15T, L21M, N22T, K24R, K37N, L42F, D61Y
notes: Mouse mAb, cloned as murine IgG2a LALAPG
B4: antibody 4.12E5 (antibody, V domains shown)
VH: EVQLQQSGPELVKTGASVKISCKASGYSFTGYFMHWVKQSHGKSLEWIGYISCYNGASVYNQRFKGKATFTIDTSSSTAYMQFNSLTSEDSAVYYCARDVLRYPRYAVDYWGQGTSVTVSS
VL: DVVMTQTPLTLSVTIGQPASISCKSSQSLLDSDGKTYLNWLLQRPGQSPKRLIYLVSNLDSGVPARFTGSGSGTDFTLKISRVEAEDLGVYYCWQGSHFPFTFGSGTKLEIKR
notes: as for B3
B5: antibody 3.6D12 (antibody, V domains shown)
VH: EVMLVESGGGLVRPGGSLKLSCTASGFTFSRCAMSWVRQTPEKRLEWVSAISRDSTYTYYSDSVKGRFTVSRDNAKNTLYLQMSSLRSEDTAMYYCARQIDDYYVDALDYWGQGTSVTVSS
VL: DVQITQSPSYLAASPGETITINCRASKIISKYLAWYQEKPGKTIKLLIYSGFTLQSGIPSRFSGSGSGTDFTLTISSLEPEDFAMYYCQQHNEYPLTFGAGTKLEIKR
notes: Mouse mAb (Method #3), cloned as murine IgG2a LALAPG; Early screens used hybridoma-purified antibody; also called mAb 3.6D12
B6: antibody 4.17A5 (antibody, V domains shown)
VH: QVQLQQSGPELLKPGASVKISCKGSGYAFSNSWINWVKLRPGQGLEWIGRIYPGDGDTKYNGKFKGKATLTADKSSSTAHMQLRSLTSVDSAVYFCARFPFGKYEGPGAMDYWGQGTSVTVSS
VL: DIQMTQTTSSLSASLGDRVTISCRASQDISSYLNWYQQKPDGTIKLLIYYTSRLHSGVPSRFSGSGSGTDFSLTISNLEQEDIATYFCQQGNTLPYTFGGGTKLEIKR
notes: Mouse mAb (Method #4), cloned as murine IgG2a LALAPG; also called mAb 4.17A5
B7: antibody 3.7D6 (antibody, V domains shown)
VH: QIQLVQSGPDLKKPGETVKISCRTSGYAFTNYGVNWVKQAPGKGLKWMGWINTNTGQTTYAEEFRGRFAISLETSASTAFLTISNLKNEDSATYFCARLIYDGDYISSDFWGQGTTLTVSS
VL: DIQMTQSPDSLSASVGETVTITCGASENIYGALNWYQRKQGKSPQLLIYGATNLADGMSSRFSGSRSGRQYSLKISSLHPDDVATYYCQNALSMPYTFGGGTKLEIKR
notes: Mouse mAb, cloned as murine IgG2a LALAPG; those versions are not written separately; also called PFD antibody 3.7D6

Target: T1, endogenous human APOL1 (wild-type immortalized podocytes; also JHH-1 cells, kidney and liver tissue) (human, UniProt O14791 28-398)
T1 construct: whole, on cells; Cell or tissue and permeabilization are told under assay; also called podocyte APOL1; endogenous APOL1
T1 sequence (looked up): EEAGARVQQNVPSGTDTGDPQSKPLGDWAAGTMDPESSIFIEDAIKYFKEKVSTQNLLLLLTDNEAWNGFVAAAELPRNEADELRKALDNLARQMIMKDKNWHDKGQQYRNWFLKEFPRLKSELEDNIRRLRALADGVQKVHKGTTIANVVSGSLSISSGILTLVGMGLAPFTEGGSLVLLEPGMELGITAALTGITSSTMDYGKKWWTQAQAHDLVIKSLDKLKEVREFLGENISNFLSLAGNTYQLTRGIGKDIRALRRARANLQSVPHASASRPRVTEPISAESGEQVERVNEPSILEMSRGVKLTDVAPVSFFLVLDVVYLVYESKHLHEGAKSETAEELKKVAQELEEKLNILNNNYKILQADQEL
Assay: summary of the Examples: podocyte flow cytometry
Protocol: Cells were harvested with 5 mM EDTA in PBS, washed once with growth media and twice with PBS. Approximately 0.5×10⁶/m1 of cells resuspended in PBS were incubated with anti-APOL1 antibodies for 1 h on ice. Following two PBS washes, 2 μg/ml of Alexa488 anti-mouse or anti-rabbit (Invitrogen A11029 and A21206, respectively) was used for 1 h on ice for detection. Cells were washed twice in PBS and resuspended in PBS with 1 μg/ml propidium iodide. Signals were read in a FACSCalibur3 (Becton Dickinson), with the exception of FIG. 8A and FIG. 14, which used a FACSCelesta, and data was analyzed using FlowJo v8.4.5. Mean fluorescence intensities were plotted in PRISM v7 after subtraction of secondary antibody alone background. For low pH experiments, cells were incubated with the antibodies in the presence of PBS pH 7.0 or PBS pH 5.5 for an hour on ice and detected with secondary antibodies at neutral pH.

Question: Does B1 bind?
Answer: binds

Question: Does B2 bind?
Answer: binds

Question: Does B3 bind?
Answer: binds

Question: Does B4 bind?
Answer: binds

Target: T2, APOL6-myc-FLAG (human, UniProt Q9BWW8 1-343)
T2 construct: whole, on cells; In fixed, permeabilized transfected COS cells; untagged APOL6 in the western blots; not shown: C-terminal myc-FLAG tag
T2 sequence (looked up): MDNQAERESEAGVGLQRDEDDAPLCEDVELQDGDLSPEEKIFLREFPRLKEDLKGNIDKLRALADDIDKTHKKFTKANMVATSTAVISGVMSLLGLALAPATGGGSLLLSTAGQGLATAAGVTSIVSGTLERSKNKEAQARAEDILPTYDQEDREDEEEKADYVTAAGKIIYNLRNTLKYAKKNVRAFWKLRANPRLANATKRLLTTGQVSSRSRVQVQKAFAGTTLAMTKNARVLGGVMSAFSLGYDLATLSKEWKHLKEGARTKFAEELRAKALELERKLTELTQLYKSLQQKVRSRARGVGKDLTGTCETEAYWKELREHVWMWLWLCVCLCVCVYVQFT
Assay: immunofluorescence on transfected COS cells; grade
Description: COS cells were transfected as in FIG. 31A except APOL1 and APOL2 were also C-terminally myc-FLAG tagged. Overlays of APOL with epitope tags: either mouse anti-FLAG-M2 or mouse anti-myc 9E10 for anti-APOL1 rabmabs; or rabbit anti-Myc 71D10 in conjunction with mouse anti-APOL1. Signals indicate the two antibodies overlap (i.e. anti-APOL1 cross-reacts with that APOL); signals (epitope tag only) indicate no cross-reactivity. Alexa647 anti-rabbit or mouse were used for the tags to rule out the possibility that any colocalization was a bleed-through artifact. Sparsely transfected areas were imaged to permit evaluation of background staining in adjacent untransfected cells—DAPI nuclear staining identifies both untransfected and transfected cell nuclei. […] Note that none of the antibodies cross-reacted with the more distantly related APOL6. *, APOL2-myc-FLAG is presumably misfolded, since it is not as cross-reactive as untagged APOL2 (compare FIG. 31A) with several antibodies. Commercial antibodies are Sigma HPA018885, Epitomics EPR2907 (2) (Epito) and Proteintech 11486-2-AP (Ptech).
Cells were plated on LabTekII (Nalge Nunc 154534) slides and fixed at 70-100% confluency. For mAb screening, cells were fixed/permeabilized for 5 min in −20° C. methanol (EMD MX0485-6). For all other experiments, cells were fixed in 3% paraformaldehyde in PBS (EMS 15710) for 20 mins at room temperature, quenched with 50 mM NH₄Cl in PBS for 10 mins, then permeabilized with 0.1% TX-100 in PBS for 4 mins or for 1h in saponin buffer [0.4% saponin (Sigma S7900), 1% bovine serum albumin (BSA; Sigma A2153), 2% fetal bovine serum (Seradigm) in PBS]. First antibodies (stored sterile at 4° C.) were applied for 1 h at room temperature, at 1 μg/ml for screening on transfected cells or at subsequently optimized concentrations for detecting endogenous APOL1. After 3×10 min washes in PBS (for Methanol or TX-100 protocols) or saponin buffer (saponin protocol), secondary antibodies were applied at 1.88 μg/ml for 1 h at room temperature, washed 3× and mounted under No. 1.5 coverslips in ProLong Gold with DAPI (4′,6-diamidino-2-phenylindole; Life Technologies P36931).

Question: Does B5 bind?
Answer: no binding (tested: 1 µg/ml)

Question: Does B1 bind?
Answer: no binding (tested: 1 µg/ml)

Question: Does B2 bind?
Answer: no binding (tested: 1 µg/ml)

Question: Does B3 bind?
Answer: no binding (tested: 1 µg/ml)

Question: Does B6 bind?
Answer: no binding (tested: 1 µg/ml)

Question: Does B7 bind?
Answer: no binding (tested: 1 µg/ml)
